{"source": "paper PMC9482650", "about": "“Quantitative fragmentomics allow affinity mapping of interactomes” (Nature Communications, 2022)", "binders": {"B1": {"name": "RGS12, O14924 (peptide)", "chain": "KTSAHHATFV"}, "B2": {"name": "PBK, Q96KB5 (peptide)", "chain": "HIVEALETDV"}, "B3": {"name": "ARHGEF16, Q5VV41 (peptide)", "chain": "MERLRVETDV"}}, "experiment_in_all_cases": "holdup assay", "design_in_all_cases": "key: below the threshold = too weak to quantify, mostly under pKd 3.1 to 4", "key": {"[1]": {"molecular_target": "TJP1_3, Q07157", "sequence (Q07157 416-512)": "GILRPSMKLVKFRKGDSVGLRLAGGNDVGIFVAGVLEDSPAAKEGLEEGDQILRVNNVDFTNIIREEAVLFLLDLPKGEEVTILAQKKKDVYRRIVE"}, "[2]": {"molecular_target": "T1, PDZD7_3, Q9H5P4", "T1 sequence (Q9H5P4 857-944, limits assumed, looked up)": "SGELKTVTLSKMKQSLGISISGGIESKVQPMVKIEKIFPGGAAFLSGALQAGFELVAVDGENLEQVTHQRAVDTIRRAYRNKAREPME"}, "[3]": {"molecular_target": "T2, TJP3_3, O95049", "T2 sequence (O95049 375-456, limits assumed, looked up)": "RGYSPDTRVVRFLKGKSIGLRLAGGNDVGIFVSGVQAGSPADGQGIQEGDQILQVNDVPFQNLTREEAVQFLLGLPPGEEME"}, "[4]": {"molecular_target": "NHERF4_4, Q86UT5", "sequence (Q86UT5 464-550)": "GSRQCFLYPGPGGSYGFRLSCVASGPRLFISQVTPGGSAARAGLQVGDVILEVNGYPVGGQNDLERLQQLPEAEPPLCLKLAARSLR"}, "[5]": {"molecular_target": "T3, PDZD2_2, O15018", "T3 sequence (O15018 329-429, limits assumed, looked up)": "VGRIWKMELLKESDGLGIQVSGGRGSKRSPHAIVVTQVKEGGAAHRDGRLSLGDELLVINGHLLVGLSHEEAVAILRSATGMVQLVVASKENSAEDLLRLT"}, "[6]": {"molecular_target": "HTRA1, Q92743", "sequence (Q92743 360-477)": "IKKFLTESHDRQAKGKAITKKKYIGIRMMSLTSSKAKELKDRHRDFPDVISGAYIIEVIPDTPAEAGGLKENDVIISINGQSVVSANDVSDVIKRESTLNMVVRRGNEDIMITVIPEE"}, "[7]": {"molecular_target": "GORASP1, Q9BQQ3", "sequence (Q9BQQ3 1-208)": "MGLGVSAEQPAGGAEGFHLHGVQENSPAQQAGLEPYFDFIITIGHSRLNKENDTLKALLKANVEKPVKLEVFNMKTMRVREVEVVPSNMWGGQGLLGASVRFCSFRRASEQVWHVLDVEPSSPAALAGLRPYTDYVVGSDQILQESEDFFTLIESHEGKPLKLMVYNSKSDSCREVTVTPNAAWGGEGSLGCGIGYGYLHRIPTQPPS"}, "[8]": {"molecular_target": "IL16_3, Q14005", "sequence (Q14005 1107-1207)": "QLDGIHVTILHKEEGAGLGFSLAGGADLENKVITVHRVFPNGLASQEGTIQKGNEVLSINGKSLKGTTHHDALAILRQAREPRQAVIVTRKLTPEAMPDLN"}, "[9]": {"molecular_target": "LIMK2, P53671", "sequence (P53671 143-248)": "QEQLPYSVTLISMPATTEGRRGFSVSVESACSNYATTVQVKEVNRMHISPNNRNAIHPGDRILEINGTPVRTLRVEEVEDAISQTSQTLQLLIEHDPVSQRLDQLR"}, "[10]": {"molecular_target": "T4, SIPA1L2, Q9P2F8", "T4 sequence (Q9P2F8 945-1036, limits assumed, looked up)": "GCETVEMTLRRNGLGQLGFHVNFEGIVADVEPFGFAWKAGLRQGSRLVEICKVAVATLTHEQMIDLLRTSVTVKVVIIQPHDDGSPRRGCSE"}, "[11]": {"molecular_target": "T5, HTRA3, P83110", "T5 sequence (P83110 354-453, limits assumed, looked up)": "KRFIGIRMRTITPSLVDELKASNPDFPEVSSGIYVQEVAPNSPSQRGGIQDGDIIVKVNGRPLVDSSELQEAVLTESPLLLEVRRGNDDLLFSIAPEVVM"}, "[12]": {"molecular_target": "LNX1_2, Q8TBB1", "sequence (Q8TBB1 371-470)": "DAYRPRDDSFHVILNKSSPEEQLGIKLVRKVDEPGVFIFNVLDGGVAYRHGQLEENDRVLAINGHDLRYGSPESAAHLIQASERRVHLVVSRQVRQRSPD"}, "[13]": {"molecular_target": "T6, SNTG2, Q9NY99", "T6 sequence (Q9NY99 68-166, limits assumed, looked up)": "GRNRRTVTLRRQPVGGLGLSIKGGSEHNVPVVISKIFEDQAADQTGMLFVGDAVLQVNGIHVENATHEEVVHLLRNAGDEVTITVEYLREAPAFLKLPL"}, "[14]": {"molecular_target": "HTRA2, O43464", "sequence (O43464 355-458)": "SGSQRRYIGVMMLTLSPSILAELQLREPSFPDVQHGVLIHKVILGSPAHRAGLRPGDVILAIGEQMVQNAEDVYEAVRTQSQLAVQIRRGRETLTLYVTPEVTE"}, "[15]": {"molecular_target": "MAGI2_2, Q86UL8", "sequence (Q86UL8 410-522)": "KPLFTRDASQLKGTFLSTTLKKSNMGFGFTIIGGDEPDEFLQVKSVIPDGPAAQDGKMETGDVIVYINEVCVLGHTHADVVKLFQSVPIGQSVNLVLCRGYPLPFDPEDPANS"}, "[16]": {"molecular_target": "T7, DLG3_2, Q92796", "T7 sequence (Q92796 221-321, limits assumed, looked up)": "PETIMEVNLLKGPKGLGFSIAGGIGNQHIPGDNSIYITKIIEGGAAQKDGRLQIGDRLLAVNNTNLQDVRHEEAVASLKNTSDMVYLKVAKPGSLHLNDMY"}, "[17]": {"molecular_target": "MAGI2_6, Q86UL8", "sequence (Q86UL8 1141-1229)": "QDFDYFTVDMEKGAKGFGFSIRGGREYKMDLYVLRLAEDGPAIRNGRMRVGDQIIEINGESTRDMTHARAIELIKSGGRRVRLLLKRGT"}, "[18]": {"molecular_target": "T8, APBA3_1, O96018", "T8 sequence (O96018 389-490, limits assumed, looked up)": "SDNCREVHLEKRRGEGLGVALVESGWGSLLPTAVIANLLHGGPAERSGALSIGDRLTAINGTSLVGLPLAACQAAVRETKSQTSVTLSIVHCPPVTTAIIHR"}, "[19]": {"molecular_target": "T9, GRIP1_5, Q9Y3R0", "T9 sequence (Q9Y3R0 568-668, limits assumed, looked up)": "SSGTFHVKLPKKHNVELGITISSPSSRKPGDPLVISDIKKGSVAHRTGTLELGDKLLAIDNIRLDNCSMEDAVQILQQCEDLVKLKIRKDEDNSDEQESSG"}, "[20]": {"molecular_target": "GRIP2_7, Q9C0E4", "sequence (Q9C0E4 934-1023)": "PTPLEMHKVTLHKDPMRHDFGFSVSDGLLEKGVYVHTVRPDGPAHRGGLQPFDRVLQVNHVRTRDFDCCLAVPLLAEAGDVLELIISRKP"}, "[21]": {"molecular_target": "T10, GRIP1_4, Q9Y3R0", "T10 sequence (Q9Y3R0 467-571, limits assumed, looked up)": "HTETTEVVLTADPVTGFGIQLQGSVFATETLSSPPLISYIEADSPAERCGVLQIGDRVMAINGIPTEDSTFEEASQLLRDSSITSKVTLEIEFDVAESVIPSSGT"}, "[22]": {"molecular_target": "FRMPD2_3, Q68DX3", "sequence (Q68DX3 1073-1166)": "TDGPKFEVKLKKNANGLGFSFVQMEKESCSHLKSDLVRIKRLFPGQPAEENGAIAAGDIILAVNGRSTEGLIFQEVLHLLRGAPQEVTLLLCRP"}, "[23]": {"molecular_target": "Inadl_3, Q8NI35", "sequence (Q8NI35 359-469)": "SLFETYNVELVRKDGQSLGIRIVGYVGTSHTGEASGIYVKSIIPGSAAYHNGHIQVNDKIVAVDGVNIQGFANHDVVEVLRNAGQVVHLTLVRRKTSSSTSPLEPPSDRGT"}, "[24]": {"molecular_target": "FRMPD4, Q14CM0", "sequence (Q14CM0 67-160)": "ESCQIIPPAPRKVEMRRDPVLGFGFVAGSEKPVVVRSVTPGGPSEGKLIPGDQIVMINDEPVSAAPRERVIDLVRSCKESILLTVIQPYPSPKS"}, "[25]": {"molecular_target": "T11, FRMPD1, Q5SYB0", "T11 sequence (Q5SYB0 52-145, limits assumed, looked up)": "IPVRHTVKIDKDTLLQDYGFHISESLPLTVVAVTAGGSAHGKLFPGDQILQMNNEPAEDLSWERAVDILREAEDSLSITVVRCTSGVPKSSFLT"}, "[26]": {"molecular_target": "Inadl_5, Q8NI35", "sequence (Q8NI35 673-780)": "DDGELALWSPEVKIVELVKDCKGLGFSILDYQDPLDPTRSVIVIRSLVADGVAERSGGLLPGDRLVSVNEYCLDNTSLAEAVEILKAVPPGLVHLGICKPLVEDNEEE"}, "[27]": {"settings": "plain residues with an end cap or a label only (N-terminal biotin on a linker: ahx)"}, "[28]": {"settings": "plain residues with an end cap or a label only (N-terminal biotin on a linker: ttds)"}}}
{"binder": "B1", "values": [{"measurement": "pKd", "setting": "[1]; [27]", "result": "below the threshold"}, {"measurement": "pKd", "setting": "[2]; [27]", "result": 4.31}, {"measurement": "pKd", "setting": "[3]; [27]", "result": "below the threshold"}, {"measurement": "pKd", "setting": "[4]; [27]", "result": "below the threshold"}, {"measurement": "pKd", "setting": "[5]; [27]", "result": 5.04}, {"measurement": "pKd", "setting": "[6]; [27]", "result": 4.43}, {"measurement": "pKd", "setting": "[7]; [27]", "result": 3.86}, {"measurement": "pKd", "setting": "[8]; [27]", "result": "below the threshold"}, {"measurement": "pKd", "setting": "[9]; [27]", "result": "below the threshold"}, {"measurement": "pKd", "setting": "[10]; [27]", "result": "below the threshold"}, {"measurement": "pKd", "setting": "[11]; [27]", "result": 4.42}, {"measurement": "pKd", "setting": "[12]; [27]", "result": 3.54}, {"measurement": "pKd", "setting": "[13]; [27]", "result": "below the threshold"}, {"measurement": "pKd", "setting": "[14]; [27]", "result": 3.93}, {"measurement": "pKd", "setting": "[15]; [27]", "result": 4.29}, {"measurement": "pKd", "setting": "[16]; [27]", "result": 3.92}, {"measurement": "pKd", "setting": "[17]; [27]", "result": 4.02}, {"measurement": "pKd", "setting": "[18]; [27]", "result": "below the threshold"}, {"measurement": "pKd", "setting": "[19]; [27]", "result": "below the threshold"}, {"measurement": "pKd", "setting": "[20]; [27]", "result": 3.72}, {"measurement": "pKd", "setting": "[21]; [27]", "result": "below the threshold"}, {"measurement": "pKd", "setting": "[22]; [27]", "result": "below the threshold"}, {"measurement": "pKd", "setting": "[23]; [27]", "result": "below the threshold"}, {"measurement": "pKd", "setting": "[24]; [27]", "result": "below the threshold"}, {"measurement": "pKd", "setting": "[25]; [27]", "result": "below the threshold"}, {"measurement": "pKd", "setting": "[26]; [27]", "result": 3.86}]}
{"binder": "B2", "values": [{"measurement": "pKd", "setting": "[1]; [28]", "result": "below the threshold"}, {"measurement": "pKd", "setting": "[2]; [28]", "result": 4.6}, {"measurement": "pKd", "setting": "[3]; [28]", "result": "below the threshold"}, {"measurement": "pKd", "setting": "[4]; [28]", "result": "below the threshold"}, {"measurement": "pKd", "setting": "[5]; [28]", "result": 4.84}, {"measurement": "pKd", "setting": "[6]; [28]", "result": "below the threshold"}, {"measurement": "pKd", "setting": "[7]; [28]", "result": "below the threshold"}, {"measurement": "pKd", "setting": "[8]; [28]", "result": "below the threshold"}, {"measurement": "pKd", "setting": "[9]; [28]", "result": "below the threshold"}, {"measurement": "pKd", "setting": "[10]; [28]", "result": "below the threshold"}, {"measurement": "pKd", "setting": "[11]; [28]", "result": "below the threshold"}, {"measurement": "pKd", "setting": "[12]; [28]", "result": "below the threshold"}, {"measurement": "pKd", "setting": "[13]; [28]", "result": 4.85}, {"measurement": "pKd", "setting": "[14]; [28]", "result": "below the threshold"}, {"measurement": "pKd", "setting": "[15]; [28]", "result": "below the threshold"}, {"measurement": "pKd", "setting": "[16]; [28]", "result": 5.71}, {"measurement": "pKd", "setting": "[17]; [28]", "result": 5.35}, {"measurement": "pKd", "setting": "[18]; [28]", "result": "below the threshold"}, {"measurement": "pKd", "setting": "[19]; [28]", "result": "below the threshold"}, {"measurement": "pKd", "setting": "[20]; [28]", "result": 3.91}, {"measurement": "pKd", "setting": "[21]; [28]", "result": "below the threshold"}, {"measurement": "pKd", "setting": "[22]; [28]", "result": "below the threshold"}, {"measurement": "pKd", "setting": "[23]; [28]", "result": 4.46}, {"measurement": "pKd", "setting": "[24]; [28]", "result": "below the threshold"}, {"measurement": "pKd", "setting": "[25]; [28]", "result": "below the threshold"}, {"measurement": "pKd", "setting": "[26]; [28]", "result": "below the threshold"}]}
{"binder": "B3", "values": [{"measurement": "pKd", "setting": "[1]; [28]", "result": "below the threshold"}, {"measurement": "pKd", "setting": "[2]; [28]", "result": 4.08}, {"measurement": "pKd", "setting": "[3]; [28]", "result": "below the threshold"}, {"measurement": "pKd", "setting": "[4]; [28]", "result": "below the threshold"}, {"measurement": "pKd", "setting": "[5]; [28]", "result": 4.33}, {"measurement": "pKd", "setting": "[6]; [28]", "result": "below the threshold"}, {"measurement": "pKd", "setting": "[7]; [28]", "result": "below the threshold"}, {"measurement": "pKd", "setting": "[8]; [28]", "result": "below the threshold"}, {"measurement": "pKd", "setting": "[9]; [28]", "result": "below the threshold"}, {"measurement": "pKd", "setting": "[10]; [28]", "result": "below the threshold"}, {"measurement": "pKd", "setting": "[11]; [28]", "result": "below the threshold"}, {"measurement": "pKd", "setting": "[12]; [28]", "result": 3.62}, {"measurement": "pKd", "setting": "[13]; [28]", "result": 4.47}, {"measurement": "pKd", "setting": "[14]; [28]", "result": "below the threshold"}, {"measurement": "pKd", "setting": "[15]; [28]", "result": 4.38}, {"measurement": "pKd", "setting": "[16]; [28]", "result": 5.61}, {"measurement": "pKd", "setting": "[17]; [28]", "result": 4.55}, {"measurement": "pKd", "setting": "[18]; [28]", "result": "below the threshold"}, {"measurement": "pKd", "setting": "[19]; [28]", "result": "below the threshold"}, {"measurement": "pKd", "setting": "[20]; [28]", "result": 3.64}, {"measurement": "pKd", "setting": "[21]; [28]", "result": "below the threshold"}, {"measurement": "pKd", "setting": "[22]; [28]", "result": "below the threshold"}, {"measurement": "pKd", "setting": "[23]; [28]", "result": 3.8}, {"measurement": "pKd", "setting": "[24]; [28]", "result": "below the threshold"}, {"measurement": "pKd", "setting": "[25]; [28]", "result": "below the threshold"}, {"measurement": "pKd", "setting": "[26]; [28]", "result": "below the threshold"}]}
